Experimental data reported in patent US20220357345A1.

How the values were obtained:
[1] = target: Aβ1-42 labelled with HiLyte Fluor 488 (UniProt P05067); experiment: microscale thermophoresis (Monolith NT.115); HiLyte Fluor 488-labelled Aβ1-42 at 80 nM in PBS, PPP serially diluted; freshly dissolved Aβ1-42
[2] = target: Aβ1-42 labelled with HiLyte Fluor 488 (UniProt P05067); experiment: microscale thermophoresis (Monolith NT.115); labelled Aβ1-42 kept at 4 °C for one week (oligomers and fibres), PPP serially diluted

Chain of UniProt P05067 (P05067 672-713 limits assumed): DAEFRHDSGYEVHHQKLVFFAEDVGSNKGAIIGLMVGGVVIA

Question: For “Aβ-binding polymer (phagocytosis-promoting peptide, PPP): small peptide chain randomly synthesized from glutamic acid, lysine, alanine and tyrosine, molecular weight 4 kD to 52 kD (average 6.5 kD)”, which Kd [1] is on record?
Answer: Its Kd is 6.6 nM.

Question: What about the Kd [2] of the same substance?
Answer: The Kd was 25.4 nM.
